The results in this text go back to patent publication US20070086998A1.

Numbering of substitutions follows the chain as printed.

This assay deals with HLA-DR as expressed on the tumor cell line. Briefly: cell-based or functional assay.

B1: MS-GPC-8-27-41 (IgG4 form) (antibody, V domains shown)
VH: QVELKESGPALVKPTQTLTLTCTFSGFSLSTSGVGVGWIRQPPGKALEWLALIDWDDDKYYSTSLKTRLTISKDTSKNQVVLTMTNMDPVDTATYYCARSPRYRGAFDYWGQGTLVTVSS
VL: DIVLTQPPSVSGAPGQRVTISCSGSESNIGNNYVQWYQQLPGTAPKLLIYDNNQRPSGVPDRFSGSKSGTSASLAITGLQSEDEADYYCQSYDMNVHVFGGGTKLTVLG
In turn, B1 came in with a % Killing by mAb; ARH-77 (DR 12); 50 nM, 4 h of 85%; a % Killing by mAb; BJAB (DR 12,13); 50 nM, 4 h of 71%; a % Killing by mAb; BONNA-12; 50 nM, 4 h of 92%; a % Killing by mAb; DOHH-2 (DR 1,2); 50 nM, 4 h of 59%. Moreover, the % Killing by mAb; EOL-1; 50 nM, 4 h stood at 69%; the % Killing by mAb; GRANTA-519 (DR 2,11); 50 nM, 4 h is 78%; the % Killing by mAb; HC-1; 50 nM, 4 h was found to be 93%; the % Killing by mAb; HD-MY-Z; 50 nM, 4 h is 69%. Besides, the % Killing by mAb; HDLM-2; 50 nM, 4 h was found to be 88%; the % Killing by mAb; KARPAS-299 (DR 1,2); 50 nM, 4 h is 82%; the % Killing by mAb; KARPAS-422 (DR 2,4); 50 nM, 4 h amounted to 66%; the % Killing by mAb; KM-H2; 50 nM, 4 h was 86%. In addition, the % Killing by mAb; L1236; 50 nM, 4 h stood at 63%; the % Killing by mAb; L-363; 50 nM, 4 h was determined as 26%; the % Killing by mAb; L-428 (DR 12); 50 nM, 4 h came out at 91%; the % Killing by mAb; LP-1; 50 nM, 4 h worked out at 73%. The % Killing by mAb; MHH-CALL-4 (DR 1,2); 50 nM, 4 h was 63%; the % Killing by mAb; MHH-PREB-1; 50 nM, 4 h was determined as 4%; the % Killing by mAb; MN-60 (DR 10,13); 50 nM, 4 h worked out at 69%; the % Killing by mAb; NALM-1 (DR 1,4); 50 nM, 4 h came out at 82%. The molecule also had a % Killing by mAb; RAJI (DR 10,17); 50 nM, 4 h of 84%; a % Killing by mAb; RPMI-8226; 50 nM, 4 h of 29%; a % Killing by mAb; SR-786 (DR 1,2); 50 nM, 4 h of 53%; a killing of melanoma cell line WM 115 of 21%.

B2: MS-GPC-8-6-13 (IgG4 form) (antibody, V domains shown)
VH: B1 VH
VL: B1 VL with N31A, Q35T, M94Y, N95D, V96H, H97Y
For B2, the % Killing by mAb; ARH-77 (DR 12); 50 nM, 4 h is 87%; the % Killing by mAb; BJAB (DR 12,13); 50 nM, 4 h worked out at 64%; the % Killing by mAb; BONNA-12; 50 nM, 4 h came out at 86%; the % Killing by mAb; DOHH-2 (DR 1,2); 50 nM, 4 h came out at 53%. Besides, the % Killing by mAb; EOL-1; 50 nM, 4 h amounted to 53%; the % Killing by mAb; GRANTA-519 (DR 2,11); 50 nM, 4 h turned out to be 73%; the % Killing by mAb; HC-1; 50 nM, 4 h was 93%; the % Killing by mAb; HD-MY-Z; 50 nM, 4 h came to 72%. The molecule also gave a % Killing by mAb; HDLM-2; 50 nM, 4 h of 90%; a % Killing by mAb; KARPAS-299 (DR 1,2); 50 nM, 4 h of 76%; a % Killing by mAb; KARPAS-422 (DR 2,4); 50 nM, 4 h of 71%; a % Killing by mAb; KM-H2; 50 nM, 4 h of 87%. The % Killing by mAb; L1236; 50 nM, 4 h came to 66%; the % Killing by mAb; L-363; 50 nM, 4 h amounted to 19%; the % Killing by mAb; L-428 (DR 12); 50 nM, 4 h is 92%; the % Killing by mAb; LP-1; 50 nM, 4 h was 73%. The same molecule registered a % Killing by mAb; MHH-CALL-4 (DR 1,2); 50 nM, 4 h of 43%; a % Killing by mAb; MHH-PREB-1; 50 nM, 4 h of 11%; a % Killing by mAb; MN-60 (DR 10,13); 50 nM, 4 h of 67%; a % Killing by mAb; NALM-1 (DR 1,4); 50 nM, 4 h of 65%. The molecule further yielded a % Killing by mAb; RAJI (DR 10,17); 50 nM, 4 h of 83%; a % Killing by mAb; RPMI-8226; 50 nM, 4 h of 19%; a % Killing by mAb; SR-786 (DR 1,2); 50 nM, 4 h of 26%.

B3: MS-GPC-8-Fab (Fab, V domains shown)
VH: B1 VH with E3Q
VL: B1 VL with E26S, N31S, Q35S, N95P, V96Q, H97A
For the molecule B3, the maximum capacity to kill MHH-Call 4 cells was found to be 65%.

B4: MS-GPC-8-6 (Fab) (Fab, V domains shown)
VH: B1 VH with E3Q
VL: B1 VL with E26S, N31S, Q35S, M94Y, N95D, V96H, H97Y
Regarding B4, the maximum capacity to kill MHH-Call 4 cells was 76%.

B5: MS-GPC-8-10-57 (IgG4 form) (antibody, V domains shown)
VH: B1 VH
VL: B1 VL with M94L, N95I, V96R
Molecule B5 showed a % Killing by mAb; ARH-77 (DR 12); 50 nM, 4 h of 88%; a % Killing by mAb; BJAB (DR 12,13); 50 nM, 4 h of 67%; a % Killing by mAb; BONNA-12; 50 nM, 4 h of 91%; a % Killing by mAb; DOHH-2 (DR 1,2); 50 nM, 4 h of 60%. This molecule had a % Killing by mAb; EOL-1; 50 nM, 4 h of 49%; a % Killing by mAb; GRANTA-519 (DR 2,11); 50 nM, 4 h of 78%; a % Killing by mAb; HC-1; 50 nM, 4 h of 86%; a % Killing by mAb; HD-MY-Z; 50 nM, 4 h of 57%. This molecule also had a % Killing by mAb; HDLM-2; 50 nM, 4 h of 84%; a % Killing by mAb; KARPAS-299 (DR 1,2); 50 nM, 4 h of 79%; a % Killing by mAb; KARPAS-422 (DR 2,4); 50 nM, 4 h of 68%; a % Killing by mAb; KM-H2; 50 nM, 4 h of 88%. For the same molecule, the % Killing by mAb; L1236; 50 nM, 4 h was 66%; the % Killing by mAb; L-363; 50 nM, 4 h is 24%; the % Killing by mAb; L-428 (DR 12); 50 nM, 4 h was 91%; the % Killing by mAb; LP-1; 50 nM, 4 h amounted to 70%. Also, the % Killing by mAb; MHH-CALL-4 (DR 1,2); 50 nM, 4 h amounted to 46%; the % Killing by mAb; MHH-PREB-1; 50 nM, 4 h was determined as 8%; the % Killing by mAb; MN-60 (DR 10,13); 50 nM, 4 h came out at 66%; the % Killing by mAb; NALM-1 (DR 1,4); 50 nM, 4 h came to 78%. The same molecule yielded a % Killing by mAb; RAJI (DR 10,17); 50 nM, 4 h of 86%; a % Killing by mAb; RPMI-8226; 50 nM, 4 h of 26%; a % Killing by mAb; SR-786 (DR 1,2); 50 nM, 4 h of 44%.

B6: MS-GPC-8-17 (Fab) (Fab, V domains shown)
VH: B1 VH with E3Q
VL: B1 VL with E26S, N31S, Q35S, M94F, N95S, H97Y
Regarding B6, the maximum capacity to kill MHH-Call 4 cells was 78%.
